Results taken from paper PMC3589475, “Large-Scale Functional Purification of Recombinant HIV-1 Capsid” (PLoS ONE, 2013).

Tests used:
[1] = target: T1, wild-type HIV-1 capsid protein (WT CA) (HIV-1 (pLAI.2), UniProt P03348 133-363, biotin (EZ-link Sulfo-NHS-LC-LC-biotin, 1 biotin per molecule) in the SPR only); assay: SPR; Biacore T100; minimally biotinylated WT CA or CA 4Mu hexamer captured on neutravidin on CM5 chips, CAI injected (100 µM and 3-fold dilutions); 50 mM sodium phosphate pH 7.5, 150 mM NaCl, 0.01% P20; steady-state one-site fit; settings: both partners purified
T1 construct: HIV-1 capsid protein (CA), the 231 residues of wild-type CA amplified from the infectious HIV-1 cDNA plasmid pLAI.2; The 5' primer added a codon for an N-terminal methionine; untagged (pET30a NdeI/XhoI, stop codon); also called CA FL; full-length wild-type capsid protein; source: E. coli BL21(DE3), purified (ammonium sulfate cut, two rounds of polymerization/depolymerization, Q-HP flow-through); …

[2] = target: T1, wild-type HIV-1 capsid protein (WT CA); assay: turbidity (absorbance at 350 nm) polymerization assay with inhibitor; 40 µM WT CA pre-incubated with inhibitor (2-fold serial dilution from 20 µM final for CAI-4), 50 mM sodium phosphate pH 7.5, 2 M NaCl, 0.005% Antifoam 204, 1% DMSO, 25°C; IC50 from initial rates; settings: both partners purified

B1: CAI peptide (peptide)
peptide: ITFEDLLDYYGP
notes: source: synthetic peptide, bought: AnaSpec Inc
[1]
  Kd: 1.38 µM

B2: CAI-4 peptide (peptide)
peptide: ITFEDLLDYYK
notes: variant of CAI peptide with a lysine residue replacing the last two C-terminal amino acids; source: synthetic peptide, bought: AnaSpec Inc
[2]
  IC50: 4.7 ± 0.9 µM
